Here are results for 10 molecules from article PMC7713142, “Crystal structure of the yeast heterodimeric ADAT2/3 deaminase”.

Bounds are passed on as bounds.

Series [1] deals with Saccharomyces cerevisiae ADAT3 (S. cerevisiae).
The target of series [2] is ScADAT2 (TAD2);ScADAT3 Del30-148 (Saccharomyces cerevisiae;Saccharomyces …, UniProt P47058;Q9URQ3 1-250;1-322, |del30-148). Description: EMSA; 2 uM tRNA, varied enzyme:tRNA molar ratios; EMSA: 20 mM Tris-HCl pH 8.0, 1 mM DTT, 2 uM tRNA, on ice 60 min; 6% native PAGE, 40 mM Tris-HCl pH 9.0 running buffer. The note with it: protein: recombinant;recombinant; tags: none (untagged in co-expression);N-terminal His6, cleaved (PreScission); copies: 1;1; label: none; tRNA cloverleaf. (In EMSA bound probe runs differently from free probe, usually more slowly.)

For series [3], the target named is ScADAT2 (TAD2);ScADAT3 R75A/K76A (Saccharomyces cerevisiae;Saccharomyces …, UniProt P47058;Q9URQ3 1-250;1-322, |R75A;K76A). The description is as above. To be noted: protein: recombinant;recombinant; tags: none (untagged in co-expression);N-terminal His6, cleaved (PreScission); copies: 1;1; label: none; tRNA cloverleaf.
Series [4] deals with ScADAT2 (TAD2);ScADAT3 K50A (Saccharomyces cerevisiae;Saccharomyces …, UniProt P47058;Q9URQ3 1-250;1-322, |K50A). The description is as above. The note with it: protein: recombinant;recombinant; tags: none (untagged in co-expression);N-terminal His6, cleaved (PreScission); copies: 1;1; label: none; tRNA cloverleaf.
The target in series [5] is ScADAT2 (TAD2);ScADAT3 (TAD3) WT (Saccharomyces cerevisiae;Saccharomyces …, UniProt P47058;Q9URQ3 1-250;1-322, |). Described as above. To be noted: protein: recombinant;recombinant; tags: none (untagged in co-expression);N-terminal His6, cleaved (PreScission); copies: 1;1; label: none; tRNA cloverleaf.
Series [6] concerns the target ScADAT2 (TAD2);ScADAT3 K72A/R73A (Saccharomyces cerevisiae;Saccharomyces …, UniProt P47058;Q9URQ3 1-250;1-322, |K72A;R73A). The description is as above. To be noted: protein: recombinant;recombinant; tags: none (untagged in co-expression);N-terminal His6, cleaved (PreScission); copies: 1;1; label: none; tRNA cloverleaf.

Chain of ScADAT2 (TAD2);ScADAT3 R75A/K76A (P47058 whole entry, chain 1 of 2): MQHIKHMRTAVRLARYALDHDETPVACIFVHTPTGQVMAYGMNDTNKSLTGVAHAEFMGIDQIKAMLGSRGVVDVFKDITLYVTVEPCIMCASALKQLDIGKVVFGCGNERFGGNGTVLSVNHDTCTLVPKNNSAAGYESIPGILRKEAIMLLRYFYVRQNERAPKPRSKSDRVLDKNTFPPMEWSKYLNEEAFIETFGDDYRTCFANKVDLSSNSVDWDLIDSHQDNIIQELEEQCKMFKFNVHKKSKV
Chain of ScADAT2 (TAD2);ScADAT3 R75A/K76A (Q9URQ3 whole entry R75A/K76A, chain 2 of 2): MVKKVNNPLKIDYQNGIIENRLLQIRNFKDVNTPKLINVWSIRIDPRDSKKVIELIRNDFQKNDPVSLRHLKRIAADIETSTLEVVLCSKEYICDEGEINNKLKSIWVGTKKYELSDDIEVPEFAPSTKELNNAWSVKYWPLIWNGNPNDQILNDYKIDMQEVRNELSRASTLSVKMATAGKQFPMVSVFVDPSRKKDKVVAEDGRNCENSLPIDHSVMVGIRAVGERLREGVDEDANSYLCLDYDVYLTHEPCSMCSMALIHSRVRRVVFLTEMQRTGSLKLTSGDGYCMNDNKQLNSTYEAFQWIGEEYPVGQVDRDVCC
Chain of ScADAT2 (TAD2);ScADAT3 Del30-148 (P47058 whole entry, stated change not applied, chain 1 of 2): as the sequence (P47058 whole entry, chain 1 of 2) above
Chain of ScADAT2 (TAD2);ScADAT3 Del30-148 (Q9URQ3 other isoform, or with tags, fused parts or gaps |del30-148, chain 2 of 2): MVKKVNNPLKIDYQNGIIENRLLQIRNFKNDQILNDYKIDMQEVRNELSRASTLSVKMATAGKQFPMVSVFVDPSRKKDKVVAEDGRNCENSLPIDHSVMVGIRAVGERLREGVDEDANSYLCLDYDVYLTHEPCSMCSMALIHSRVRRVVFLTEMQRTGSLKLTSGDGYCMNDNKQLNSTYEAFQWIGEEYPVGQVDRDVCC
Chain of ScADAT2 (TAD2);ScADAT3 K72A/R73A (P47058 whole entry, chain 1 of 2): as the sequence (P47058 whole entry, chain 1 of 2) above
Chain of ScADAT2 (TAD2);ScADAT3 K72A/R73A (Q9URQ3 whole entry K72A/R73A, chain 2 of 2): as the sequence (Q9URQ3 whole entry R75A/K76A, chain 2 of 2) above, with K72A, R73A, A75R, A76K counted along it
Chain of ScADAT2 (TAD2);ScADAT3 K50A (P47058 whole entry, chain 1 of 2): as the sequence (P47058 whole entry, chain 1 of 2) above
Chain of ScADAT2 (TAD2);ScADAT3 K50A (Q9URQ3 whole entry K50A, chain 2 of 2): as the sequence (Q9URQ3 whole entry R75A/K76A, chain 2 of 2) above, with K50A, A75R, A76K counted along it
Chain of ScADAT2 (TAD2);ScADAT3 (TAD3) WT (P47058 whole entry, chain 1 of 2): as the sequence (P47058 whole entry, chain 1 of 2) above
Chain of ScADAT2 (TAD2);ScADAT3 (TAD3) WT (Q9URQ3 whole entry, chain 2 of 2): as the sequence (Q9URQ3 whole entry R75A/K76A, chain 2 of 2) above, with A75R, A76K counted along it

For ScADAT2/S93A (enzyme), in series [1], the in vitro deamination of tRNA^Ala by the heterodimer (30 nM enzyme), coupled to cleavage by EcEndoV, against WT was greater than 50 % activity.

For the molecule ScADAT2/I89A (enzyme), the in vitro deamination of tRNA^Ala by the heterodimer (30 nM enzyme), coupled to cleavage by EcEndoV, against WT in series [1] was greater than 50 % activity.

ScADAT2/L49A (enzyme) yielded an in vitro deamination of tRNA^Ala by the heterodimer (30 nM enzyme), coupled to cleavage by EcEndoV, against WT in series [1] greater than 50 % activity.

ScADAT2/Q97A (enzyme) showed an in vitro deamination of tRNA^Ala by the heterodimer (30 nM enzyme), coupled to cleavage by EcEndoV, against WT in series [1] greater than 50 % activity.

Take ScADAT2/S69A (enzyme): the in vitro deamination of tRNA^Ala by the heterodimer (30 nM enzyme), coupled to cleavage by EcEndoV, against WT in series [1] is greater than 50 % activity.

In turn, ScADAT2/F57A (enzyme) showed an in vitro deamination of tRNA^Ala by the heterodimer (30 nM enzyme), coupled to cleavage by EcEndoV, against WT in series [1] greater than 50 % activity.

“ScADAT2-D124A/T125A/C126A/T127A (enzyme)”: the in vitro deamination of tRNA^Ala by the heterodimer (30 nM enzyme), coupled to cleavage by EcEndoV, against WT in series [1] is greater than 50 % activity.

In series [1], ScADAT2/L119A/V121A (enzyme) had an in vitro deamination of tRNA^Ala by the heterodimer (30 nM enzyme), coupled to cleavage by EcEndoV, against WT greater than 50 % activity.

ScADAT2/V52A (enzyme) registered an in vitro deamination of tRNA^Ala by the heterodimer (30 nM enzyme), coupled to cleavage by EcEndoV, against WT in series [1] greater than 50 % activity.

B1: tRNAAla (structured_RNA)
RNA: GGGCGUGUGGCGUAGUCGGUAGCGCGCUCCCUUAGCAUGGGAGAGGUCUCCGGUUCGAUUCCGGACUCGUCCACCA
modifications: none (in vitro transcript)
In the case of B1, the binding result in series [2] was “no binding”; in series [3] it was “no binding”; in series [4] it was “no binding”; in series [5], “binds”; in series [6], “no binding”.
